Measured values as given in patent publication US20090062198A1.
Ends that are not written are not given here.

Biological target: mammalian voltage-gated Kv1.2 channel (mammalian)

## VSCTGSKDCYAPCRQQTGCPNAKCINKSCKCYGC (not fully specified; ends and bridges not checked) [[Q15]-MTX]
  potency on the channel: 47 pM
